One molecule from article PMC12409426, “Regulation of the MDM2-p53 nexus by a nuclear phosphoinositide and small heat shock protein complex” (The Journal of Biological Chemistry, 2025) can be followed below.

Holding throughout (details): both partners purified
Test [1] concerns the target T1, His-tagged MDM2 (recombinant, bacteria-expressed) (UniProt Q00987 1-491).
T1 construct: MDM2, E3 ubiquitin-protein ligase; His-tagged construct purchased from Genscript; also called His-MDM2; MDM2 recombinant protein; source: E. coli BL-21(DE3), purified (Ni-NTA-agarose)
Description: MST; fluorescence-labeled MDM2 (target, 5 nM, RED-NHS) constant, non-labeled ligand titrated to 500 nM; 50 mM Tris-HCl pH 8.0, 50 mM NaCl, 80 mM KCl, 0.05% Tween-20; Monolith NT.115 Pico.

Test [2] has as its target T1, His-tagged MDM2 (recombinant, …). Description: MST; fluorescence-labeled αBC or HSP27 (target, 5 nM, RED-NHS) constant, non-labeled His-/FLAG-MDM2 or His-/FLAG-p53 titrated to 500 nM; 50 mM Tris-HCl pH 8.0, 50 mM NaCl, 80 mM KCl, 0.05% Tween-20.
The target in test [3] is T2, FLAG-tagged MDM2 (mammalian-expressed, PIPn-linked) (UniProt Q00987 1-491, PIP2 stably associated (PIPn-linked), site not told).
T2 construct: MDM2; cDNA purchased from OriGene; Its chemistry and site are unknown; also called FLAG-MDM2; PIPn-linked MDM2; source: HEK293FT, purified (FLAG Purification Kit), dialysed into PBS
The test is described as above.

T1 sequence (Q00987 whole entry): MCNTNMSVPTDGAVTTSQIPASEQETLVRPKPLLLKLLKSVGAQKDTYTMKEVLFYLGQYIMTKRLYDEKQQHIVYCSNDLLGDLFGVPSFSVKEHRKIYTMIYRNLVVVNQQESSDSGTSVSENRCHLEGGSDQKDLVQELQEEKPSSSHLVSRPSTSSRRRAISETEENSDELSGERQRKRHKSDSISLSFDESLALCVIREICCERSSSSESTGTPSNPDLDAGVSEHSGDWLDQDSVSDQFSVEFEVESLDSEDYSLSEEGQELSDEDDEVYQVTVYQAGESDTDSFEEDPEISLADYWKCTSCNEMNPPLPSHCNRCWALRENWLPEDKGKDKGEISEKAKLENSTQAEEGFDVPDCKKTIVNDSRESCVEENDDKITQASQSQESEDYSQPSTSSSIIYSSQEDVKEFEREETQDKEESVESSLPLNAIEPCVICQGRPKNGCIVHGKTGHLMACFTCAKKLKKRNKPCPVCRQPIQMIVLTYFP
T2 sequence (Q00987 whole entry): as above

B1: αB-crystallin (recombinant, His-tagged) (natural protein, UniProt P02511 1-175, looked up)
chain: MDIAIHHPWIRRPFFPFHSPSRLFDQFFGEHLLESDLFPTSTSLSPFYLRPPSFLRAPSWFDTGLSEMRLEKDRFSVNLDVKHFSPEELKVKVLGDVIEVHGKHEERQDEHGFISREFHRKYRIPADVDPLTITSSLSSDGVLTVNGPRKQVSGPERTIPITREEKPAVTAAPKK
notes: αB-crystallin; His-tagged construct purchased from Genscript; source: E. coli BL-21(DE3), purified (Ni-NTA-agarose)
Broadly, the Kd is the equilibrium constant for the complex coming apart. For the molecule B1, the Kd is 58 ± 5 nM in test [1], 58 ± 5 nM in test [2] and 7 ± 1 nM in test [3].
